Reference: paper PMC9482650, “Quantitative fragmentomics allow affinity mapping of interactomes” (Nature Communications, 2022)

Legend:
Test in all cases: holdup assay
Parameters in all cases: key: below the threshold = too weak to quantify, mostly under pKd 3.1 to 4
[1] = biological target: FRMPD2_3, Q68DX3
[2] = biological target: T1, MPP2, Q14168
T1 sequence (Q14168 180-250, limits assumed, looked up): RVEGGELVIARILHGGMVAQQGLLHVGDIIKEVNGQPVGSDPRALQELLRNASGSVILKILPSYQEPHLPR

[3] = biological target: GRIP2_3, Q9C0E4
Sequence of GRIP2_3, Q9C0E4 (Q9C0E4 238-339): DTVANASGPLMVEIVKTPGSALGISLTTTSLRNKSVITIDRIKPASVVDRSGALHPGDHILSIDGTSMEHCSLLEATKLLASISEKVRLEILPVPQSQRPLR

[4] = biological target: T2, DLG3_3, Q92796
T2 sequence (Q92796 374-475, limits assumed, looked up): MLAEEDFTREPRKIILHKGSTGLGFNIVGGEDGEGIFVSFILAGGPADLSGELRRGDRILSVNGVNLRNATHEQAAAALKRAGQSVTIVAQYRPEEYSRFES

[5] = biological target: T3, DLG3_2, Q92796
T3 sequence (Q92796 221-321, limits assumed, looked up): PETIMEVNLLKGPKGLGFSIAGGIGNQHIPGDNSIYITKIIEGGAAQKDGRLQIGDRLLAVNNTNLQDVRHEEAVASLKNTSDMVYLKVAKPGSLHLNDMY

[6] = biological target: MAGI2_4, Q86UL8
Sequence of MAGI2_4, Q86UL8 (Q86UL8 772-865): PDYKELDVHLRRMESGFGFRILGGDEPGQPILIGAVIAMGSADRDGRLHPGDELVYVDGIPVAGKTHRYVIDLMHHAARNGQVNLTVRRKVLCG

[7] = biological target: Inadl_8, Q8NI35
Sequence of Inadl_8, Q8NI35 (Q8NI35 1425-1530): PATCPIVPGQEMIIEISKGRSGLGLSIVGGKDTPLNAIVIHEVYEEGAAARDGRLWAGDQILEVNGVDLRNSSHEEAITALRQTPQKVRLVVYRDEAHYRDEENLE

[8] = biological target: MAGI3_2, Q5TCQ9
Sequence of MAGI3_2, Q5TCQ9 (Q5TCQ9 398-503): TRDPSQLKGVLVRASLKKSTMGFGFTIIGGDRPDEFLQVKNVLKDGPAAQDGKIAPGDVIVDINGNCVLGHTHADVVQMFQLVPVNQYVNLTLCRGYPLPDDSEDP

[9] = biological target: IL16_3, Q14005
Sequence of IL16_3, Q14005 (Q14005 1107-1207): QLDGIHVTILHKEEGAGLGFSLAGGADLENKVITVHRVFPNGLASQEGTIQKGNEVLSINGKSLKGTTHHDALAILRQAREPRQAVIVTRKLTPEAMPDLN

[10] = biological target: T4, APBA2_2, Q99767
T4 sequence (Q99767 654-744, limits assumed, looked up): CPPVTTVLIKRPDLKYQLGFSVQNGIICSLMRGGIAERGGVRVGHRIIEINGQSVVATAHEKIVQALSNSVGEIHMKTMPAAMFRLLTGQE

[11] = biological target: LIMK2, P53671
Sequence of LIMK2, P53671 (P53671 143-248): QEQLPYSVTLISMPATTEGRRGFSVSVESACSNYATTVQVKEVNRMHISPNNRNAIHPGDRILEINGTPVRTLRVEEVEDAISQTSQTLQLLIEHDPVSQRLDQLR

[12] = biological target: GRIP2_5, Q9C0E4
Sequence of GRIP2_5, Q9C0E4 (Q9C0E4 544-642): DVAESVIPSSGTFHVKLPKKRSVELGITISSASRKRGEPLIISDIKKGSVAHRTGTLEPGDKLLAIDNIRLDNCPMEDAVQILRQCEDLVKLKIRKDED

[13] = biological target: T5, CARD11, Q9BXL7
T5 sequence (Q9BXL7 662-765, limits assumed, looked up): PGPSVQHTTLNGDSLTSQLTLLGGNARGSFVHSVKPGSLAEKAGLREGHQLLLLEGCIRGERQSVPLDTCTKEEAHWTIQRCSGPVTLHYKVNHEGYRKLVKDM

[14] = biological target: CASK, O14936
Sequence of CASK, O14936 (O14936 487-570): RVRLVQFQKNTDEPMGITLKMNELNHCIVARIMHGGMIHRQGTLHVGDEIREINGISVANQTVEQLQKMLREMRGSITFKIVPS

[15] = biological target: Inadl_1, Q8NI35
Sequence of Inadl_1, Q8NI35 (Q8NI35 113-229): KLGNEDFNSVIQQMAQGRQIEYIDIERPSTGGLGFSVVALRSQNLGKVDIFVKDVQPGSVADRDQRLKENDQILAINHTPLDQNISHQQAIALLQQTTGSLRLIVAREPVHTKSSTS

[16] = biological target: T6, PDZD7_3, Q9H5P4
T6 sequence (Q9H5P4 857-944, limits assumed, looked up): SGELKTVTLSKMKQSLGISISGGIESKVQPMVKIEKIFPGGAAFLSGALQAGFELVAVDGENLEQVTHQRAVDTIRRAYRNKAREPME

[17] = biological target: TJP1_3, Q07157
Sequence of TJP1_3, Q07157 (Q07157 416-512): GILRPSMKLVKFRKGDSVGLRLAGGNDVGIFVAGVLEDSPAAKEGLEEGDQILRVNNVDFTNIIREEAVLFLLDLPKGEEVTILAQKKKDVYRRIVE

[18] = biological target: T7, MPDZ_12, O75970
T7 sequence (O75970 1857-1958, limits assumed, looked up): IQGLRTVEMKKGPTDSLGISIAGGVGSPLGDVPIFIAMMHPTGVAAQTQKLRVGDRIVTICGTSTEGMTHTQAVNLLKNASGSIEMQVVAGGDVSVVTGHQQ

[19] = biological target: LDB3, O75112
Sequence of LDB3, O75112 (O75112 1-94): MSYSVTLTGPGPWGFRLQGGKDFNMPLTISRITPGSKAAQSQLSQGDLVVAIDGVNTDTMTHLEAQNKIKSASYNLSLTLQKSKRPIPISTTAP

[20] = biological target: T8, TJP3_3, O95049
T8 sequence (O95049 375-456, limits assumed, looked up): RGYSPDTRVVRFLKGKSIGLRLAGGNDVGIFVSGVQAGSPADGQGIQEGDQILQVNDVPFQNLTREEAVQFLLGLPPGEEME

[21] = biological target: T9, LNX2_2, Q8N448
T9 sequence (Q8N448 334-432, limits assumed, looked up): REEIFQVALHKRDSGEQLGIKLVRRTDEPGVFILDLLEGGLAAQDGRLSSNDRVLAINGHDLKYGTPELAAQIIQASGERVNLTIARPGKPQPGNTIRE

[22] = biological target: DLG4_1, P78352
Sequence of DLG4_1, P78352 (P78352 62-152): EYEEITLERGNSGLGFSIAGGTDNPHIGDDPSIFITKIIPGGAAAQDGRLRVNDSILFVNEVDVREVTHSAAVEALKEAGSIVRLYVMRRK

[23] = biological target: PTPN3, P26045
Sequence of PTPN3, P26045 (P26045 505-587): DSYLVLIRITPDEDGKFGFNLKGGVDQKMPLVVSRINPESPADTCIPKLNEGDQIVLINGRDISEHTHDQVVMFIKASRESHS

[24] = biological target: T10, SHANK1, Q9Y566
T10 sequence (Q9Y566 658-767, limits assumed, looked up): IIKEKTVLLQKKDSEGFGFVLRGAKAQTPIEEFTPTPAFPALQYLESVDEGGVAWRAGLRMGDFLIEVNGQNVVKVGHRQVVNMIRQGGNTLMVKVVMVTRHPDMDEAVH

[25] = biological target: T11, DFNB31_2, Q9P202
T11 sequence (Q9P202 274-371, limits assumed, looked up): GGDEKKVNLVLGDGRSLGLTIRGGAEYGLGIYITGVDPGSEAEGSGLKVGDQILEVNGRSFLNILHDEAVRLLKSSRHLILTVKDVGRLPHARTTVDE

[26] = biological target: MAGI2_6, Q86UL8
Sequence of MAGI2_6, Q86UL8 (Q86UL8 1141-1229): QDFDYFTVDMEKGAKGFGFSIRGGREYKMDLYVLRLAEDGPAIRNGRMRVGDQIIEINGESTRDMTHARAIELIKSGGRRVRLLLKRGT

[27] = biological target: GRIP2_4, Q9C0E4
Sequence of GRIP2_4, Q9C0E4 (Q9C0E4 446-548): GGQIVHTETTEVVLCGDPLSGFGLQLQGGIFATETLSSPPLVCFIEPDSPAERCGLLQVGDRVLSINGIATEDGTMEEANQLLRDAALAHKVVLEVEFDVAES

[28] = biological target: GRIP2_6, Q9C0E4
Sequence of GRIP2_6, Q9C0E4 (Q9C0E4 648-740): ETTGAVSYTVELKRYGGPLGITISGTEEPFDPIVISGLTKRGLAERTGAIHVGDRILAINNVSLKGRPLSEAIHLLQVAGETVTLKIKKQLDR

[29] = plain residues with an end cap or a label only (N-terminal biotin on a linker: ado-ado)
[30] = modified: phospho on T at position -2 from the C-terminal residue

Sequence of FRMPD2_3, Q68DX3 (Q68DX3 1073-1166): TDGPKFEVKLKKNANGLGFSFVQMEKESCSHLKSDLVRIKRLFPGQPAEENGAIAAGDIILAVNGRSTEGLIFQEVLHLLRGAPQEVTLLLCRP

## YNNCLEILRV [DCAF7, P61962]
[1]; [29]
  pKd: below the threshold
[2]; [29]
  pKd: below the threshold
[3]; [29]
  pKd: below the threshold
[4]; [29]
  pKd: below the threshold
[5]; [29]
  pKd: below the threshold
[6]; [29]
  pKd: below the threshold
[7]; [29]
  pKd: below the threshold
[8]; [29]
  pKd: below the threshold
[9]; [29]
  pKd: below the threshold
[10]; [29]
  pKd: below the threshold
[11]; [29]
  pKd: below the threshold
[12]; [29]
  pKd: below the threshold
[13]; [29]
  pKd: below the threshold
[14]; [29]
  pKd: below the threshold
[15]; [29]
  pKd: below the threshold
[16]; [29]
  pKd: below the threshold
[17]; [29]
  pKd: below the threshold
[18]; [29]
  pKd: below the threshold
[19]; [29]
  pKd: below the threshold
[20]; [29]
  pKd: below the threshold
[21]; [29]
  pKd: 4.91
[22]; [29]
  pKd: below the threshold
[23]; [29]
  pKd: below the threshold
[24]; [29]
  pKd: below the threshold
[25]; [29]
  pKd: below the threshold
[26]; [29]
  pKd: below the threshold
[27]; [29]
  pKd: below the threshold
[28]; [29]
  pKd: below the threshold

## RRLPGKETMA [GRIK2, Q13002]
[1]; [29]
  pKd: below the threshold
[2]; [29]
  pKd: below the threshold
[3]; [29]
  pKd: below the threshold
[4]; [29]
  pKd: below the threshold
[5]; [29]
  pKd: 4.18
[6]; [29]
  pKd: below the threshold
[7]; [29]
  pKd: below the threshold
[8]; [29]
  pKd: below the threshold
[9]; [29]
  pKd: below the threshold
[10]; [29]
  pKd: below the threshold
[11]; [29]
  pKd: below the threshold
[12]; [29]
  pKd: below the threshold
[13]; [29]
  pKd: below the threshold
[14]; [29]
  pKd: below the threshold
[15]; [29]
  pKd: below the threshold
[16]; [29]
  pKd: below the threshold
[17]; [29]
  pKd: below the threshold
[18]; [29]
  pKd: below the threshold
[19]; [29]
  pKd: below the threshold
[20]; [29]
  pKd: below the threshold
[21]; [29]
  pKd: below the threshold
[22]; [29]
  pKd: below the threshold
[23]; [29]
  pKd: below the threshold
[24]; [29]
  pKd: below the threshold
[25]; [29]
  pKd: below the threshold
[26]; [29]
  pKd: below the threshold
[27]; [29]
  pKd: below the threshold
[28]; [29]
  pKd: below the threshold

## SKPTRRETEV [HPV35-E6_-2P, P27228]
[1]; [30]
  pKd: below the threshold
[2]; [30]
  pKd: below the threshold
[3]; [30]
  pKd: below the threshold
[4]; [30]
  pKd: below the threshold
[5]; [30]
  pKd: below the threshold
[6]; [30]
  pKd: below the threshold
[7]; [30]
  pKd: below the threshold
[8]; [30]
  pKd: below the threshold
[9]; [30]
  pKd: below the threshold
[10]; [30]
  pKd: below the threshold
[11]; [30]
  pKd: below the threshold
[12]; [30]
  pKd: below the threshold
[13]; [30]
  pKd: below the threshold
[14]; [30]
  pKd: below the threshold
[15]; [30]
  pKd: below the threshold
[16]; [30]
  pKd: 3.61
[17]; [30]
  pKd: below the threshold
[18]; [30]
  pKd: below the threshold
[19]; [30]
  pKd: below the threshold
[20]; [30]
  pKd: below the threshold
[21]; [30]
  pKd: below the threshold
[22]; [30]
  pKd: below the threshold
[23]; [30]
  pKd: 3.98
[24]; [30]
  pKd: below the threshold
[25]; [30]
  pKd: below the threshold
[26]; [30]
  pKd: below the threshold
[27]; [30]
  pKd: below the threshold
[28]; [30]
  pKd: below the threshold
